Biological target: T1, full-length Ebola GP on pseudotyped lentivirus (Zaire ebolavirus, UniProt Q05320 33-676)
T1 sequence: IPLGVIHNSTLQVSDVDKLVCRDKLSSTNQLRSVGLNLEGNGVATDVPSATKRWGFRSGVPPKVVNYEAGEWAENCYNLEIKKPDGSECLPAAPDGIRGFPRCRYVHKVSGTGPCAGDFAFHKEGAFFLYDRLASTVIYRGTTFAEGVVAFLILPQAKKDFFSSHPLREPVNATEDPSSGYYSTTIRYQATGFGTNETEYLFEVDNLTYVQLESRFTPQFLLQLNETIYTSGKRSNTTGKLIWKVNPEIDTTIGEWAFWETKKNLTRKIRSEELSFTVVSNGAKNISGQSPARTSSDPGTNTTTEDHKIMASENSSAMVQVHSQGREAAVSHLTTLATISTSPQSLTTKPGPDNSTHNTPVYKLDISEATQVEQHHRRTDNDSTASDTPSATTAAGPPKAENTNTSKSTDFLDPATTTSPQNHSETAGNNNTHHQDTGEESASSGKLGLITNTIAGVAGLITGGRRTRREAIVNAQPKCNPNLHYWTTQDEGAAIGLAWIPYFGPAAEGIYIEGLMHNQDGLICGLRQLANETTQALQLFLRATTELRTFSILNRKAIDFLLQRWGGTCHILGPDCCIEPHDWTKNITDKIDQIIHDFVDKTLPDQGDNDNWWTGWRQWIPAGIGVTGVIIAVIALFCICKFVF
Assay: cell-based or functional assay

B1: mAb114 WT IgG (antibody, V domains shown)
VH: EVQLVESGGGLIQPGGSLRLSCAASGFALRMYDMHWVRQTIDKRLEWVSAVGPSGDTYYADSVKGRFAVSRENAKNSLSLQMNSLTAGDTAIYYCVRSDRGVAGLFDSWGQGILVTVSS
VL: DIQMTQSPSSLSASVGDRITITCRASQAFDNYVAWYQQRPGKVPKLLISAASALHAGVPSRFSGSGSGTHFTLTISSLQPEDVATYYCQNYNSAPLTFGGGTKVEIK
In the case of B1, the “Ebola GP pseudotyped lentivirus IC50” value is reported as 1.43 nM.

Reference: US20250243261A1 (CZ BIOHUB SF, published 2025)
